This data set concerns the target BCL11A (Homo sapiens) (UniProt Q9H165). Briefly: EMSA supershift. The conditions noted are these: with NF-Y, EMSA with nuclear extracts, 100x molar excess competitors, buffer and temperature not given (refs 25-27). (In general: In EMSA bound probe runs differently from free probe, usually more slowly.)
UniProt Q9H165, sequence (Q9H165 whole entry): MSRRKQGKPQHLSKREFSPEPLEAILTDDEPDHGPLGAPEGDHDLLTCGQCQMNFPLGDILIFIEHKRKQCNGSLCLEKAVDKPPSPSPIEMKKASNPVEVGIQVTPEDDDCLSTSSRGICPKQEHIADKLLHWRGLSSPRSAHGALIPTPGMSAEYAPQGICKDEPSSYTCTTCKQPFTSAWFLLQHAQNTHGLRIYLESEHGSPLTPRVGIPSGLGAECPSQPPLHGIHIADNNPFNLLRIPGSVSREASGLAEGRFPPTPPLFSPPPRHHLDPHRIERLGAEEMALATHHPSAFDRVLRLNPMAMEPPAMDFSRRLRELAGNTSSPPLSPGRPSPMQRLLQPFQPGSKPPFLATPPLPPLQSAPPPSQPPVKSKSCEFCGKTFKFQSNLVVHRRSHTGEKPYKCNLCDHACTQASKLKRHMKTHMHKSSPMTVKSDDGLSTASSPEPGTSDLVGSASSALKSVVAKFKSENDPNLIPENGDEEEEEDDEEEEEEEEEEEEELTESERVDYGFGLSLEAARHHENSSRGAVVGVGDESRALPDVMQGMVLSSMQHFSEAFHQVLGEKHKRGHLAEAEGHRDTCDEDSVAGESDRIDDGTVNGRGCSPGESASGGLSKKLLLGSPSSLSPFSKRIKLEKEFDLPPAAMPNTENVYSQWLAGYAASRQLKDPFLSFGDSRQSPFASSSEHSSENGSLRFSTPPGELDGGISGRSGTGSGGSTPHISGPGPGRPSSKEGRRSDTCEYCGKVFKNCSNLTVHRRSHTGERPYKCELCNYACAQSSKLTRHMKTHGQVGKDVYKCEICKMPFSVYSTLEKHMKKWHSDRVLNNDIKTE

As for “GCCTTGCCTTGACCAATAGCCTTGACAAGGCAAACTTGACCAATAGTCTTAGAGTATCCAGTGAGGCCAGGGGCCGGCGGCTGGCTAGGGATGA (double strand) [Wt proximal gamma-globin promoter probe (94 bases)]”, the binding signal (% of NF-Y band supershifted) is 40 (D14 extract), 30 (K562 extract) and 30 (fetal liver extract).

Values taken from article PMC3468502.
